Experimental data reported in the supplement of paper PMC7125110.
± gives the standard error. Variants at the floor of the assay were thinned out.

B1: glmS ribozyme (parent)
chain: AUAAAAGCGCCAGAACUACAGAAAUGUAGUUGACGAGGAGGAGGUUUAUCGAAUUUUCGGCGGAUGCCUCCAAA

Assays:
Details in all cases: with glucosamine-6-phosphate
[1] = variants of: B1; assay: self-cleavage kobs at 40 uM GlcN6P; higher = faster cleavage; RNA array
Method in brief: (§1)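 Using a hybridised Cy3 probe at 37 °C, barcoded ribozyme variants transcribed in situ by E. coli RNA polymerase on sequenced MiSeq chips were monitored across tiles imaged over ~14 h. The flow contained glucosamine-6-phosphate from 40 μM to 10 mM in HEPES/KCl/Mg(OAc)2 buffer. Signals were normalised to baseline and to non-cleaving reference variants before per-tile medians were fit to one- or two-exponential decays to yield kobs. Weighted Michaelis–Menten fits across concentrations gave kcat and KM.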

[2] = variants of: B1; assay: self-cleavage kobs at 160 uM GlcN6P; higher = faster cleavage; RNA array
Method in brief: as §1

[3] = variants of: B1; assay: self-cleavage kobs at 640 uM GlcN6P; higher = faster cleavage; RNA array
Method in brief: as §1

[4] = variants of: B1; assay: self-cleavage kobs at 10000 uM GlcN6P; higher = faster cleavage; RNA array
Method in brief: as §1

[5] = variants of: B1; assay: self-cleavage kobs at 2500 uM GlcN6P; higher = faster cleavage; RNA array
Method in brief: as §1

| Variant | self-cleavage kobs at 40 uM GlcN6P [1] [s⁻¹] | self-cleavage kobs at 160 uM GlcN6P [2] [s⁻¹] | self-cleavage kobs at 640 uM GlcN6P [3] [s⁻¹] | self-cleavage kobs at 10000 uM GlcN6P [4] [s⁻¹] | self-cleavage kobs at 2500 uM GlcN6P [5] [s⁻¹] |
| --- | --- | --- | --- | --- | --- |
| A15U G38A U56C | < 1e-05 | – | – | – | – |
| C8A A39C | < 1e-05 | < 1e-05 | < 1e-05 | < 1e-05 | – |
| C10G C11G G63C | < 1e-05 | – | – | < 1e-05 | – |
| G29C G32C U57G | < 1e-05 | – | – | – | – |
| C8A G66C | < 1e-05 | – | – | – | < 1e-05 |
| U54G C71A | 0.00016 ± 3.2e-05 | – | – | 0.00496 ± 0.001 | 0.00157 ± 0.00049 |
| G60C G62C | < 1e-05 | < 1e-05 | – | – | – |
| U49G U57A | < 1e-05 | – | < 1e-05 | – | – |
| A39C U49G | < 1e-05 | < 1e-05 | – | 6.91e-05 ± 9.5e-06 | 4.21e-05 ± 1.9e-05 |
| G38C A48U U65A | < 1e-05 | – | – | – | – |
| C16U A33U C50G A64U U69A | 0.000139 ± 2.3e-05 | – | – | 0.000172 ± 3.4e-05 | – |
| A36G G62C C67U | < 1e-05 | – | – | < 1e-05 | – |
| A15C U47G G51A U56C | < 1e-05 | – | – | < 1e-05 | < 1e-05 |
| C8A C10A G44U U46A C67A | < 1e-05 | – | – | – | < 1e-05 |
| U30G G43C | < 1e-05 | – | – | < 1e-05 | < 1e-05 |
| U2C C11U G40A U45G | < 1e-05 | – | – | – | – |
| G51U G62U | < 1e-05 | < 1e-05 | – | < 1e-05 | – |
| A6U A39C U47C A64U | < 1e-05 | – | – | – | – |
| U46A A48C | < 1e-05 | – | – | – | – |
| C8A G38C | < 1e-05 | < 1e-05 | < 1e-05 | < 1e-05 | – |
| C10A C11U U69G | 4.43e-05 ± 2.1e-05 | – | – | 5.88e-05 ± 1.5e-05 | – |
| U49A G51A U57A C58G | < 1e-05 | – | – | < 1e-05 | – |
| G35C G41U G63U | < 1e-05 | – | – | – | – |
| G35U C68G | 0.000484 ± 0.00019 | – | – | – | – |
| C8A G13A | < 1e-05 | < 1e-05 | < 1e-05 | < 1e-05 | < 1e-05 |
| C10U U46A U49A U65C C68G | < 1e-05 | – | – | < 1e-05 | – |

| Variant | self-cleavage kobs at 40 uM GlcN6P [1] [s⁻¹] | self-cleavage kobs at 160 uM GlcN6P [2] [s⁻¹] | self-cleavage kobs at 640 uM GlcN6P [3] [s⁻¹] | self-cleavage kobs at 10000 uM GlcN6P [4] [s⁻¹] | self-cleavage kobs at 2500 uM GlcN6P [5] [s⁻¹] |
| --- | --- | --- | --- | --- | --- |
| A14U G43U G51U | < 1e-05 | – | – | – | < 1e-05 |
| A14C C70U | 0.000159 ± 1.4e-05 | 0.000308 ± 3.9e-05 | 0.000897 ± 9.5e-05 | 0.00953 ± 0.0013 | 0.00439 ± 0.0007 |
| G44U A52G A53U | < 1e-05 | – | – | < 1e-05 | – |
| A14C G35U C70U | < 1e-05 | – | – | < 1e-05 | – |
| G32A A36C A42G C70G | < 1e-05 | – | – | < 1e-05 | – |
| U45G C50U A64G | < 1e-05 | – | < 1e-05 | – | – |
| A14G C68U | 0.000235 ± 1.9e-05 | 0.000503 ± 6.4e-05 | 0.00222 ± 0.00018 | 0.0159 ± 0.0026 | 0.00412 ± 0.00051 |
| G35U G41U | < 1e-05 | < 1e-05 | – | < 1e-05 | < 1e-05 |
| G35C G41U G51C | < 1e-05 | – | – | – | < 1e-05 |
| A48C C50U | < 1e-05 | < 1e-05 | < 1e-05 | < 1e-05 | < 1e-05 |
| C8A U31A C50G A53U C70A | 0.000306 ± 7.3e-05 | – | – | 0.000515 ± 0.00016 | – |
| G9C U47G | < 1e-05 | – | – | < 1e-05 | – |
| A33U G44C C68U | < 1e-05 | – | – | < 1e-05 | – |
| U2G A33G | < 1e-05 | – | – | < 1e-05 | – |
| A6G G35U U56A | < 1e-05 | – | – | – | – |
| A14C G35U | < 1e-05 | < 1e-05 | – | < 1e-05 | < 1e-05 |
| G37A A39C G40U | < 1e-05 | – | – | 4.03e-05 ± 1e-05 | – |
| C8A A15C | < 1e-05 | < 1e-05 | < 1e-05 | – | < 1e-05 |
| G35C G38U C50G C68A C70A | 0.000136 ± 3.2e-05 | – | – | 0.000258 ± 3.9e-05 | – |
| A36G A42G A52G | < 1e-05 | – | < 1e-05 | – | < 1e-05 |
| C10U A64G C68A | < 1e-05 | – | – | – | – |
| C8A U30A A48G | < 1e-05 | – | – | < 1e-05 | – |
| G37C A48C | < 1e-05 | – | < 1e-05 | < 1e-05 | < 1e-05 |
| C16A C34U | < 1e-05 | < 1e-05 | < 1e-05 | – | < 1e-05 |
| G51A U57G | < 1e-05 | < 1e-05 | – | – | < 1e-05 |
| G51A C61G | < 1e-05 | < 1e-05 | – | – | – |
